Laboratory results: patent US20090130123A1 (published 2009)
Changes are numbered by the printed parent chain. Read-outs that look alike come from different tables or passages of the source.

T1: WNV E protein DIII displayed on yeast (Saccharomyces cerevisiae; West Nile …, UniProt Q9Q6P4 586-705)
T1 construct: domain: DIII; also called WNV DIII
T1 sequence: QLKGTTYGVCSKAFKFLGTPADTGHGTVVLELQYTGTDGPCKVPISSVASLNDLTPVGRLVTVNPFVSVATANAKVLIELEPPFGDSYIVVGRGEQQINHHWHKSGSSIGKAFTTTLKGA

T2: Recombinant WNV-E protein ectodomain (West Nile virus, UniProt Q9Q6P4 291-700)
T2 construct: extracellular domain; also called rWNV-E; WNE
T2 sequence (looked up): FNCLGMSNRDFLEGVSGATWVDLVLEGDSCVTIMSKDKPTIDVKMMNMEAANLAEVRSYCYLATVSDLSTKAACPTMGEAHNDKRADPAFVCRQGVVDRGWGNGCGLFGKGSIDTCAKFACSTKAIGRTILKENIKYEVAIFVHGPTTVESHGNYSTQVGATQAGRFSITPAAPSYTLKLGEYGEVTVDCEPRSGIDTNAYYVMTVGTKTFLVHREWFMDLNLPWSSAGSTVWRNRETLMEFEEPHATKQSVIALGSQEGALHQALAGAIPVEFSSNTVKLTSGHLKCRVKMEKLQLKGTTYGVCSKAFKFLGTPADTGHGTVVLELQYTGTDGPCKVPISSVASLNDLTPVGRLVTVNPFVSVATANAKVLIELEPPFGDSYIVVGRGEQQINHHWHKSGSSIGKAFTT

B1: scFv-Fc 11 (Fc fusion)
chain: QVQLVQSGAEVKKPGASVKVSCKASGYTFSGYSTHWLRQVPGQGLEWIGWDNPSSGDTTYAENFRGRVTLTRDTSITTDYLEVRGLRSDDTAVYYCARGGDDYSFDHWGQGTLVTVSSGGGGSGGGGSGGGGSSSELTQDPAVSVALGQTVRITCRGDSLRSYYASWYQQKPGQAPVLVIYGENNRPSGIPDRFSGSSSGDTASLTITGAQAEDEADYYCNSRDSSDHLLLFGGGTKL
notes: also called 11 scFv-Fc
B2: 79 scFv-Fc (Fc fusion)
chain: QVQLVQSGAEVKKPGSSVKVSCKASGGTFSSYAISWVRQAPGQGLEWMGWMNSNTGDTGYAQKFQGRVTMTRNTSTSTAYMELSSLRSEDTAVYYCAKISNYHYYAMDVWGQGTLVTVSSGGGGSGGGGSGGGGSLPVLTQPPSASGTSGQTVTISCSGGSSNIGSHLVTWYQQFPGTAPKVLIHTNDQRPSGVPDRISGSKSGTSASLAISGLQSDDEGDYYCAAWDDSLNGYVFGTGTKVTVLG
notes: also called scFv-Fc 79; antibody 79 (scFv-Fc)
B3: scFv 69 (scFv, not shown: small tags and cut ends)
scFv: MAQVQLVQSGAEVKEPGSSVKVSCKASGGTFSNYPISWVRQAPGQGLEWMGGIIPITNSPGYAQKFQGRVTISADESTGTVYMELSSLRSEDTAIYYCAKDPNRYESGVLHYWHGLDVWGQGTTVTVSSGGGGSGGGGSGGGGSLPVLTQPPSASGTPGQTVTLSCSGSSSNIGSNTVNWYQQLPGTAPKLLIYSNNQRPSGVPDRFSASKSGTSASLAITGLQAEDEADYFCAAWDDSLVYVFGTGTKVTVLGQPKAAPSAAAEQKLISEEDL
notes: also called 69 scFv; antibody 69
B4: 10 (Fc fusion)
scFv-Fc chain: QVQLVQSGAEVKKPGSSVKVSCKASGYTFSGYSTHWLRQVPGQGLEWIGWDNPSSGDTTYAENFRGRVTLTRDTSITTDYLEVRGLRSDDTAVYYCARGGDDYSFDHWGQGTLVTVSSSGGGSGGGGSGGGGSQTVVTQEPSFSVSPGGTITLTCGLSSGSVFTSYYPSWYQQTPGQAPRTLIYSTNTRSSGVPDRFSGSILGNKAALTITGAQADDESDYYCVLYMGSGIGVFGTGTKVTVLG
notes: also called scFv-Fc 10; 10 scFv-Fc
B5: scFv-Fc 15 (Fc fusion)
chain: QVQLVQSGAEVKKPGASVKVSCKASGYTFSGYSTHWLRQVPGQGLEWIGWDNPSSGDTTYAENFRGRVTLTRDTSITTDYLEVRGLRSDDTAVYYCARGGDDYSFDHWGQGTLVTVSSGGGGSGGGGSGGGGSQSALTQPASVSGSPGQSITISCTGTNSDVGIYNLVSWYQQHPGKAPKLMIYDVSNRPSGVSSRFSGSNSGNTATLTISGLQAEDEADYYCSAHAGDNTQFGGGTKLTVLS
notes: also called 15 scFv-Fc
B6: scFv 85 (scFv, not shown: small tags and cut ends)
scFv: MAQVQLVQSGAEVKKPGASVKVSCKASGYTFSGYSTHWLRQVPGQGLEWIGWDNPSSGDTTYAENFRGRVTLTRDTSITTDYLEVRGLRSDDTAVYYCARGGDDYSFDHWGQGTLVTVSSGGGGSGGGGSGGGGSSSELTQDPAVSVALGQTVTITCQGGGLRNYYASWYQQKPGQAPVLLVYGRDNRPSGIPDRFSGSSSGNTASLTITGAQAEDEADYYCNSRDSSGNHLVFGGGTKLTVLGQPKATPSAAAEQKLISEEDL
notes: also called 85 scFv; antibody 85
B7: scFv 79 (scFv)
scFv: MAQVQLVQSGAEVKKPGSSVKVSCKASGGTFSSYAISWVRQAPGQGLEWMGWMNSNTGDTGYAQKFQGRVTMTRNTSTSTAYMELSSLRSEDTAVYYCAKISNYHYYAMDVWGQGTLVTVSSGGGGSGGGGSGGGGSLPVLTQPPSASGTSGQTVTISCSGGSSNIGSHLVTWYQQFPGTAPKVLIHTNDQRPSGVPDRISGSKSGTSASLAISGLQSDDEGDYYCAAWDDSLNGYVFGTGTKVTVLGQPKATPSAAAEQKLISEEDL
notes: also called 79 scFv; antibody 79
B8: scFv 11 (scFv)
scFv: MAQVQLVQSGAEVKKPGASVKVSCKASGYTFSGYSTHWLRQVPGQGLEWIGWDNPSSGDTTYAENFRGRVTLTRDTSITTDYLEVRGLRSDDTAVYYCARGGDDYSFDHWGQGTLVTVSSGGGGSGGGGSGGGGSSSELTQDPAVSVALGQTVRITCRGDSLRSYYASWYQQKPGQAPVLVIYGENNRPSGIPDRFSGSSSGDTASLTITGAQAEDEADYYCNSRDSSDHLLLFGGGTKLTVLGQPKATPSAAAEQKLISEEDL
notes: also called 11 scFv; antibody 11
B9: scFv-Fc 71 (Fc fusion)
chain: QVQLVQSGAEVKKPGASVKVSCKASGYTFSGYSTHWLRQVPGQGLEWIGWDNPSSGDTTYAENFRGRVTLTRDTSITTDYLEVRGLRSDDTAVYYCARGGDDYSFDHWGQGTLVTVSSGGGGSGGGGSGGGGSSYELTQPPSASGTTGQRVTISCSGSSSNIGSNTVNWYQQLPGTAPKLLIYSNNQRPSGVPDRLSGSKSGTSASLAISGLQSEDEADYYCAAWDARLTGPLFGGGTKLSVLR
notes: also called 71 scFv-Fc
B10: scFv-Fc 73 (Fc fusion)
chain: B9 chain with T147P, L196F
notes: also called 73 scFv-Fc
B11: scFv 71 (scFv)
scFv: MAQVQLVQSGAEVKKPGASVKVSCKASGYTFSGYSTHWLRQVPGQGLEWIGWDNPSSGDTTYAENFRGRVTLTRDTSITTDYLEVRGLRSDDTAVYYCARGGDDYSFDHWGQGTLVTVSSGGGGSGGGGSGGGGSSYELTQPPSASGTTGQRVTISCSGSSSNIGSNTVNWYQQLPGTAPKLLIYSNNQRPSGVPDRLSGSKSGTSASLAISGLQSEDEADYYCAAWDARLTGPLFGGGTKLSVLRQPKAAPSAAAEQKLISEEDL
notes: also called 71 scFv; antibody 71
B12: scFv 73 (scFv)
scFv: B11 scFv with T149P, L198F
notes: also called 73 scFv; antibody 73
B13: scFv 15 (scFv)
scFv: MAQVQLVQSGAEVKKPGASVKVSCKASGYTFSGYSTHWLRQVPGQGLEWIGWDNPSSGDTTYAENFRGRVTLTRDTSITTDYLEVRGLRSDDTAVYYCARGGDDYSFDHWGQGTLVTVSSGGGGSGGGGSGGGGSQSALTQPASVSGSPGQSITISCTGTNSDVGIYNLVSWYQQHPGKAPKLMIYDVSNRPSGVSSRFSGSNSGNTATLTISGLQAEDEADYYCSAHAGDNTQFGGGTKLTVLSQPKAAPSAAAEQKLISEEDL
notes: also called 15 scFv; antibody 15
B14: scFv 84 (scFv)
scFv: MAQVQLVQSGAEVKKPGASVKVSCKASGYTFSGYSTHWLRQVPGQGLEWIGWDNPSSGDTTYAENFRGRVTLTRDTSITTDYLEVRGLRSDDTAVYYCARGGDDYSFDHWGQGTLVTVSSGGGGSGGGGSGGGGSQSVLTQPPSVSVAPGKTARIPCGGNNSGTKSVHWYQQKPGQAPVLVIYDDRVRPSGIPERFSGSNSGDTATLTISRVAAGDEADYYCQVSDGSGDPPTWVFGGGTRLTVLGQPKAAPSAAAEQKLISEEDL
notes: also called 84 scFv; antibody 84
B15: 84 scFv-Fc (Fc fusion)
chain: QVQLVQSGAEVKKPGASVKVSCKASGYTFSGYSTHWLRQVPGQGLEWIGWDNPSSGDTTYAENFRGRVTLTRDTSITTDYLEVRGLRSDDTAVYYCARGGDDYSFDHWGQGTLVTVSSGGGGSGGGGSGGGGSQSVLTQPPSVSVAPGKTARIPCGGNNSGTKSVHWYQQKPGQAPVLVIYDDRVRPSGIPERFSGSNSGDTATLTISRVAAGDEADYYCQVSDGSGDPPTWVFGGGTRLTVL
notes: also called scFv-Fc 84
B16: scFv 10 (scFv, not shown: small tags and cut ends)
scFv: MAQVQLVQSGAEVKKPGSSVKVSCKASGYTFSGYSTHWLRQVPGQGLEWIGWDNPSSGDTTYAENFRGRVTLTRDTSITTDYLEVRGLRSDDTAVYYCARGGDDYSFDHWGQGTLVTVSSSGGGSGGGGSGGGGSQTVVTQEPSFSVSPGGTITLTCGLSSGSVFTSYYPSWYQQTPGQAPRTLIYSTNTRSSGVPDRFSGSILGNKAALTITGAQADDESDYYCVLYMGSGIGVFGTGTKVTVLGQPKAAPSAAAEQKLISEEDL
notes: also called 10 scFv; antibody 10

Assays:
[1] = molecular target: West Nile virus E protein on WNV strain 2741 virions (West Nile virus, UniProt Q9Q6P4 291-791); assay: cell-based or functional assay
Chain of West Nile virus E protein on WNV strain 2741 virions (Q9Q6P4 291-791 limits assumed): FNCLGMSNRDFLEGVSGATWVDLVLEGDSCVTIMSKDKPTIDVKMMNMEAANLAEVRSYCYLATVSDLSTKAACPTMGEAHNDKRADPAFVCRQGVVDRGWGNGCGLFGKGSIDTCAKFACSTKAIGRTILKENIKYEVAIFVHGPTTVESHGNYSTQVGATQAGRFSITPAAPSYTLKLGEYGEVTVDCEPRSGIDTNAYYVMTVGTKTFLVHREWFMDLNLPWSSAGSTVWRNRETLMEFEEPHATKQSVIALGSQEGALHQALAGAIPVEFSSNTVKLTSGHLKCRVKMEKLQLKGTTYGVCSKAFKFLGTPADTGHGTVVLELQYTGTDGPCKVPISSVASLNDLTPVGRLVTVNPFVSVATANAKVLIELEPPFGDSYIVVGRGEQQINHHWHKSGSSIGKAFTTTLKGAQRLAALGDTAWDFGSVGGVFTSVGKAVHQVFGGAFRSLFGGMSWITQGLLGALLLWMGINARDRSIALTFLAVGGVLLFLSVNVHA

[2] = molecular target: T1, WNV E protein DIII displayed on yeast; assay: flow cytometry on yeast displaying WNV E DIII (pYD1); % positive cells
[3] = molecular target: T2, Recombinant WNV-E protein ectodomain; assay: SPR (Biacore); scFv-Fc captured by goat anti-human IgG on CM4 chip, rWNV-E in solution
[4] = molecular target: T2, Recombinant WNV-E protein ectodomain; assay: SPR (Biacore 3000); scFv on NTA chip via His tag, rWNV-E in solution
[5] = molecular target: T2, Recombinant WNV-E protein ectodomain
[6] = molecular target: T2, Recombinant WNV-E protein ectodomain; assay: ELISA; plate coated with rWNV-E (1 ug/ml), purified His6-tagged scFv, anti-His6-HRP, OD450

| Binder | PRNT80 titer (µg/ml), plaque reduction neutralization of WNV on Vero cells [1] | binding result [2] | Ka [4] | Kd [4] | koff [4] | kon [4] | other results |
| --- | --- | --- | --- | --- | --- | --- | --- |
| B1 | 1.25 µg/mL | no binding | – | – | – | – | – |
| B2 | 5 µg/mL | no binding | – | – | – | – | Ka [3]: 7.34e+10 M⁻¹; Kd [3]: 0.0136 nM; koff [3]: 3.58e-07 s⁻¹; kon [3]: 26200 M⁻¹ s⁻¹ |
| B3 | – | – | 1.69e+07 M⁻¹ | 59.2 nM | – | – | – |
| B4 | – | no binding | – | – | – | – | – |
| B5 | 1.25 µg/mL | no binding | – | – | – | – | – |
| B6 | – | – | 7.45e+08 M⁻¹ | 1.34 nM | 0.00673 s⁻¹ | 5.01e+06 M⁻¹ s⁻¹ | – |
| B7 | – | – | 1.87e+08 M⁻¹ | 5.35 nM | 0.00067 s⁻¹ | 125000 M⁻¹ s⁻¹ | EC50 (read off the curve) [5]: ~0.4 µg/mL |
| B8 | – | – | 2.03e+08 M⁻¹ | 4.92 nM | 0.00161 s⁻¹ | 326000 M⁻¹ s⁻¹ | – |
| B9 | 2.5 µg/mL | no binding | – | – | – | – | – |
| B10 | 1.25 µg/mL | no binding | – | – | – | – | – |
| B11 | – | – | 3.64e+07 M⁻¹ | 27.5 nM | 0.00258 s⁻¹ | 93900 M⁻¹ s⁻¹ | – |
| B12 | – | – | 2.3e+08 M⁻¹ | 4.35 nM | 0.00225 s⁻¹ | 517000 M⁻¹ s⁻¹ | – |
| B13 | – | – | 1.04e+08 M⁻¹ | 9.65 nM | 0.00128 s⁻¹ | 133000 M⁻¹ s⁻¹ | EC50 (read off the curve) [5]: ~0.3 µg/mL |
| B14 | – | – | 2.65e+07 M⁻¹ | 37.8 nM | 0.00685 s⁻¹ | 181000 M⁻¹ s⁻¹ | – |
| B15 | 12.5 µg/mL | no binding | – | – | – | – | – |
| B16 | – | – | 2.64e+07 M⁻¹ | 37.8 nM | 0.0212 s⁻¹ | 561000 M⁻¹ s⁻¹ | EC50 (read off the curve) [6]: ~0.2 µg/mL |
